According to patent US20130116412:

Legend:
Ac-GFPG-NH2 = tested on: T1, Ac-GFPG-NH2
T1 sequence: GFPG

[1] = tested on: GST-(PPG)5, fusion of glutathione S-transferase and (Pro-Pro-Gly)5 with an intervening thrombin cleavage site
Chain of GST-(PPG)5, fusion of glutathione S-transferase and (Pro-Pro-Gly)5 with an intervening thrombin cleavage site (chain, as listed by the source): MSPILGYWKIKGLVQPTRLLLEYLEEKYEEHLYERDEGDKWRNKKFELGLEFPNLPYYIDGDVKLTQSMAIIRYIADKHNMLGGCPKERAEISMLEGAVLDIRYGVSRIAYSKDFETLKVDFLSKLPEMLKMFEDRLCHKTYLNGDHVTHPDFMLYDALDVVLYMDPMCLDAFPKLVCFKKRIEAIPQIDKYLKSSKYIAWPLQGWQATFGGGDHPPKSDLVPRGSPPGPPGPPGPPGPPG

Substance: human prolyl-4-hydroxylase (P4H), full-length tetramer produced from plasmid pBK1.PDI1.P4H7
- in vitro hydroxylation of proline, MALDI-TOF / LC-MS (Ac-GFPG-NH2): The positive control showed that the proline residue in Ac-GFPG-NH2 was hydroxylated.
- in vitro hydroxylation of proline residues, MALDI-TOF of the cleaved peptide [1]: up to 3 hydroxyproline residues were produced in the (PPG)5 peptide after incubation with P4H
